The values below come from patent US20240189392A1.

Positions of bridges follow the written chain, without caps; N, C: chain ends. Chains are numbered I, II in the order given. No end group written: not given here.

The assay concerns the target human RXFP2 (human), Q8WXD0. The assay can be described thus: cell-based or functional assay.

human RXFP2 (human), Q8WXD0, sequence (Q8WXD0 whole entry): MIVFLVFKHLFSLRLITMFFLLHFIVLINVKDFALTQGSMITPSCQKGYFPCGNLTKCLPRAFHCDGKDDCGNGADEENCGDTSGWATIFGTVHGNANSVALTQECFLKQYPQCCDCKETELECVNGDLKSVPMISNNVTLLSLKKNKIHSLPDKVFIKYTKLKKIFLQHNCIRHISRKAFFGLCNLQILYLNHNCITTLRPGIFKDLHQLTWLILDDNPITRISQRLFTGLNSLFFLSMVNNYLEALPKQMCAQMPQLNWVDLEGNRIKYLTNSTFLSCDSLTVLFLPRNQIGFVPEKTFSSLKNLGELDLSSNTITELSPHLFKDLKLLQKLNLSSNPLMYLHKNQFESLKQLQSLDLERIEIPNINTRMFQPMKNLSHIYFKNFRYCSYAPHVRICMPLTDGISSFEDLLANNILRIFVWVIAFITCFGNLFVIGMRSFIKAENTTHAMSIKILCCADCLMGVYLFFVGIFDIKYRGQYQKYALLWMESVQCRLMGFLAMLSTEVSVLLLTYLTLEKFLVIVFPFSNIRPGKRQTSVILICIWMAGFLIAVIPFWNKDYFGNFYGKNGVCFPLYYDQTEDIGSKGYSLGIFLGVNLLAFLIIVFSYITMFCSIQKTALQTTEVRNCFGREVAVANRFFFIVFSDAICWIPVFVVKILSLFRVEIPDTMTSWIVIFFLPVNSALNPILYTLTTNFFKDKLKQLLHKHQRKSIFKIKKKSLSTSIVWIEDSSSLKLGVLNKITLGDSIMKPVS

B1: RLX-A-AQ1-20KPEG (ligand)
chain 1: XLYSALANKCCHVGCTKRSLARFC
chain 2: ASWMEEVIKLCGRELVRAQIAICGMSTWS
modifications: here or on the partner: pACF (para-acetylphenylalanine) at position 1 of the A chain, linked to a 20 kDA PEG via an oxime linkage
Turning to B1, the Maximal cAMP stimulation by RLX-A-AQ1-20KPEG compared to WT-RLX (percent difference), AVG, hRXFP2 was 99%; the Potency Ratio (RLX-A-AQ1-20KPEG/WT-RLX), cAMP assay, human RXFP2/CHO-K1 cells amounted to 32 fold; the RLX-A-AQ1-20KPEG Potency Ratio (hRXFP 1-1.0), cAMP assay amounted to 54; the cAMP Assay EC50 (nM), human RXFP2/CHO-K1 cells came out at 174 nM.

B2: wild-type relaxin (human relaxin 2) (ligand)
chain 1: QLYSALANKCCHVGCTKRSLARFC
chain 2: DSWMEEVIKLCGRELVRAQIAICGMSTWS
modifications: disulfide I:10-I:15, I:11-II:11, I:24-II:23
In turn, B2 gave a fold less potent than INSL3, cAMP assay, human RXFP2/CHO-K1 cells of 10 fold.
